Laboratory results published in IntAct's records for PubMed 15024067.

B1: RNA-binding protein PIN4 (Saccharomyces cerevisiae), P34217 (parent)
chain: METSSFENAPPAAINDAQDNNINTETNDQETNQQSIETRDAIDKENGVQTETGENSAKNAEQNVSSTNLNNAPTNGALDDDVIPNAIVIKNIPFAIKKEQLLDIIEEMDLPLPYAFNYHFDNGIFRGLAFANFTTPEETTQVITSLNGKEISGRKLKVEYKKMLPQAERERIEREKREKRGQLEEQHRSSSNLSLDSLSKMSGSGNNNTSNNQLFSTLMNGINANSMMNSPMNNTINNNSSNNNNSGNIILNQPSLSAQHTSSSLYQTNVNNQAQMSTERFYAPLPSTSTLPLPPQQLDFNDPDTLEIYSQLLLFKDREKYYYELAYPMGISASHKRIINVLCSYLGLVEVYDPRFIIIRRKILDHANLQSHLQQQGQMTSAHPLQPNSTGGSMNRSQSYTSLLQAHAAAAANSISNQAVNNSSNSNTINSNNGNGNNVIINNNSASSTPKISSQGQFSMQPTLTSPKMNIHHSSQYNSADQPQQPQPQTQQNVQSAAQQQQSFLRQQATLTPSSRIPSGYSANHYQINSVNPLLRNSQISPPNSQIPINSQTLSQAQPPAQSQTQQRVPVAYQNASLSSQQLYNLNGPSSANSQSQLLPQHTNGSVHSNFSYQSYHDESMLSAHNLNSADLIYKSLSHSGLDDGLEQGLNRSLSGLDLQNQNKKNLW
B2: Serine/threonine-protein kinase RAD53 (Saccharomyces cerevisiae), P22216 (parent)
chain: MENITQPTQQSTQATQRFLIEKFSQEQIGENIVCRVICTTGQIPIRDLSADISQVLKEKRSIKKVWTFGRNPACDYHLGNISRLSNKHFQILLGEDGNLLLNDISTNGTWLNGQKVEKNSNQLLSQGDEITVGVGVESDILSLVIFINDKFKQCLEQNKVDRIRSNLKNTSKIASPGLTSSTASSMVANKTGIFKDFSIIDEVVGQGAFATVKKAIERTTGKTFAVKIISKRKVIGNMDGVTRELEVLQKLNHPRIVRLKGFYEDTESYYMVMEFVSGGDLMDFVAAHGAVGEDAGREISRQILTAIKYIHSMGISHRDLKPDNILIEQDDPVLVKITDFGLAKVQGNGSFMKTFCGTLAYVAPEVIRGKDTSVSPDEYEERNEYSSLVDMWSMGCLVYVILTGHLPFSGSTQDQLYKQIGRGSYHEGPLKDFRISEEARDFIDSLLQVDPNNRSTAAKALNHPWIKMSPLGSQSYGDFSQISLSQSLSQQKLLENMDDAQYEFVKAQRKLQMEQQLQEQDQEDQDGKIQGFKIPAHAPIRYTQPKSIEAETREQKLLHSNNTENVKSSKKKGNGRFLTLKPLPDSIIQESLEIQQGVNPFFIGRSEDCNCKIEDNRLSRVHCFIFKKRHAVGKSMYESPAQGLDDIWYCHTGTNVSYLNNNRMIQGTKFLLQDGDEIKIIWDKNNKFVIGFKVEINDTTGLFNEGLGMLQEQRVVLKQTAEEKDLVKKLTQMMAAQRANQPSASSSSMSAKKPPVSDTNNNGNNSVLNDLVESPINANTGNILKRIHSVSLSQSQIDPSKKVKRAKLDQTSKGPENLQFS
partner: B1 chain

Variants of: B1
Conditions: with rad53_yeast RAD53, P22216

effect of a mutation on the interaction	Variant
disrupting interaction	T305A

Variants of: B2
Conditions: with pin4_yeast PIN4, P34217

effect of a mutation on the interaction	Variant
disrupting interaction	S105T
disrupting interaction	N107A
disrupting interaction	R70A
disrupting interaction	R70K
